What all share (assay): cell-based or functional assay
Assay [1] addresses cynomolgus monkey glucagon receptor (cynomolgus monkey).
The target of assay [2] is cynomolgus monkey GLP-1 receptor (cynomolgus monkey, UniProt F8V479 24-463).
For assay [3], the target named is T1, human GIP receptor (human, UniProt P48546 22-466).
T1 sequence (looked up): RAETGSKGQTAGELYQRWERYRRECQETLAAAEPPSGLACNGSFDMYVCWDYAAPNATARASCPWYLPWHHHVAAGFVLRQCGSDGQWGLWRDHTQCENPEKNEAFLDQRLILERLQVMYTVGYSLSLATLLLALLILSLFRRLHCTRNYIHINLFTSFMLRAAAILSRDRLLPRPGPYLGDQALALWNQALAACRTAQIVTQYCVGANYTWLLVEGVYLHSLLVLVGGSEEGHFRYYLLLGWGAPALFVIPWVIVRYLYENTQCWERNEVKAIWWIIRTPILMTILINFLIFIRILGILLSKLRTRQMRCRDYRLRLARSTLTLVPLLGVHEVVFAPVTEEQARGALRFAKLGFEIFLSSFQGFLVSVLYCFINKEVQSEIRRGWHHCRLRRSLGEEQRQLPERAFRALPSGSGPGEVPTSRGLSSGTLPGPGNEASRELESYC

The target of assay [4] is T2, human GLP-1 receptor (human, UniProt P43220 24-463).
Assay [5] concerns the target T3, rat GLP-1 receptor (rat, UniProt P32301 22-463).
T3 sequence (looked up): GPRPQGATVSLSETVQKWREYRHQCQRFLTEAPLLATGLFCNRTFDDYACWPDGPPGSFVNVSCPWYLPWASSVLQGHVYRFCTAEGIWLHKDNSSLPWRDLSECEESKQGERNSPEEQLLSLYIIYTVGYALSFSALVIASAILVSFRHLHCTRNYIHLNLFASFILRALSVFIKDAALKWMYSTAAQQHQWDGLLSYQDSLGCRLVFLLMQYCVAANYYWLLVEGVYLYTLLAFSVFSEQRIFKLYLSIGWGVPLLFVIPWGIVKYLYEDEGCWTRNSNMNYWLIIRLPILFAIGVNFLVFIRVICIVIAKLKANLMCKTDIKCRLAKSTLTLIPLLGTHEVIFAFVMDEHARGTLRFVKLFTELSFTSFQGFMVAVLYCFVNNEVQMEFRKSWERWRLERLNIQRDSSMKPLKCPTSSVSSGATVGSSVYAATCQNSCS

Assay [6] addresses T4, mouse GLP-1 receptor (mouse, UniProt O35659 22-463).
T4 sequence (looked up): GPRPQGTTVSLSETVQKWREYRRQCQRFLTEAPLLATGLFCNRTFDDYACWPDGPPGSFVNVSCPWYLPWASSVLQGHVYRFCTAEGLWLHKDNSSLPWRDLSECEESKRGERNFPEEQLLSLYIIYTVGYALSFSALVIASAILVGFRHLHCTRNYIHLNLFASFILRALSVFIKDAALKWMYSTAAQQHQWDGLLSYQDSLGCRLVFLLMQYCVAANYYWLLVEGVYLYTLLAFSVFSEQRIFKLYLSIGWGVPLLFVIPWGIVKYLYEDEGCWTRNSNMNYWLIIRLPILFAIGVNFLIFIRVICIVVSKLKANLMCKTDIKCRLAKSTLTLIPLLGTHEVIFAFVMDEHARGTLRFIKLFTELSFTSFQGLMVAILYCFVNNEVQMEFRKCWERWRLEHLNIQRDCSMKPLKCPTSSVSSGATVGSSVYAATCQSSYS

For assay [7], the target named is T5, mouse GIP receptor (mouse, UniProt Q0P543 19-460).
T5 sequence (looked up): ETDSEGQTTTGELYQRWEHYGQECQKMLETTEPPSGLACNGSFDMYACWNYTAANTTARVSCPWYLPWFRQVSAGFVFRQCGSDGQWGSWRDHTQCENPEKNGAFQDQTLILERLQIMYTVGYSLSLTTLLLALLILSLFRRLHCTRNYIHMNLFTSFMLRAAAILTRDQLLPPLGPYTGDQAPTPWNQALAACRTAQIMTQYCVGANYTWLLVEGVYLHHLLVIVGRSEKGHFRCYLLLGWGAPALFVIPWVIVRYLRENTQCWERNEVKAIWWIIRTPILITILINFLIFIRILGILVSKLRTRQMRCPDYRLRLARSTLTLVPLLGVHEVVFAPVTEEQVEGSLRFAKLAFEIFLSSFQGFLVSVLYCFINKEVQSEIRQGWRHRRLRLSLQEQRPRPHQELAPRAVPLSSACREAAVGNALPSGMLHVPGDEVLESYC

For assay [8], the target named is T1, human GIP receptor. This is another data set of the same source.
Assay [9] addresses T2, human GLP-1 receptor. This is another data set of the same source.
The target in assay [10] is T3, rat GLP-1 receptor. This is another data set of the same source.
Assay [11] concerns the target human glucagon receptor (human, UniProt P47871 26-477).
In assay [12] the target is T4, mouse GLP-1 receptor. This is another data set of the same source.
The target of assay [13] is T6, rat GIP receptor (rat, UniProt P43219 19-455).
T6 sequence (looked up): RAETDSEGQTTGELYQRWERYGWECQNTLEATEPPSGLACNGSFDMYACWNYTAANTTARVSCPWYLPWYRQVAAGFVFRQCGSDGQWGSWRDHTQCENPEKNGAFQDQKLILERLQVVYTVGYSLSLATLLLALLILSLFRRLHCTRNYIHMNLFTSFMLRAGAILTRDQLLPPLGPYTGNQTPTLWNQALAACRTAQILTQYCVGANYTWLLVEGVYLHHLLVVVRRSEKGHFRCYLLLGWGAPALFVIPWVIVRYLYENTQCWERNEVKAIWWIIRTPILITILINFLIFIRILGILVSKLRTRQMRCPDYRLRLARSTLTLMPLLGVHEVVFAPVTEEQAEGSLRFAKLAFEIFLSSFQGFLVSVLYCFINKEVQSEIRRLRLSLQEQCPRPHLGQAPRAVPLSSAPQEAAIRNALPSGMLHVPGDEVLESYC

Assay [14] concerns the target T5, mouse GIP receptor. This is another data set of the same source.

Residue numbers refer to the chain shown, from its start. Like-named read-outs stand apart in the source and are kept apart here.

B1: IP088 (Fc fusion)
chain: YSEGTFTSDYSKLLEEEAVRLFIEWLVKGPAAAGGSGSTASSGSGSATGGGGAATHTCPPCPAPEF
Take B1: the results for the “cAMP EC50, 4.2% cyno serum albumin” value in assay [1] and in assay [2] were more than 1000 nM and 0.19 nM, respectively. The “cAMP EC50” value came to 0.016 nM in [3]; 0.222 nM in [4]; 0.038 nM in [5]; 0.42 nM in [6]; 137 nM in assay [7]; 0.0078 nM in [8]. The “cAMP EC50” value in assay [9] stood at 0.076 nM; in assay [10], 0.033 nM; in [11], 460 nM; in assay [12], 0.31 nM; in [13] it was 0.1 nM; in assay [14], 86 nM.

B2: IP298 (Fc fusion)
chain: YSEGTFTSDVSSYLERQAIDEFIAWLLKGGAAAGGSGSTASSGSGSATGGGGAATHTCPPC
As to B2, the “cAMP EC50” value was 0.14 nM in assay [8]; 0.18 nM in assay [9]; 0.015 nM in [10]; more than 13100 nM in assay [11]; 0.36 nM in [12]; 7.5 nM in [13]. In addition, the “cAMP EC50” value in assay [14] came to 80 nM.

B3: IP304 (Fc fusion)
chain: B2 chain with D20E
With B3, the “cAMP EC50” value in [8] stood at 0.1 nM; in assay [9], 0.16 nM; in assay [10], 0.024 nM; in [11] it was 2600 nM; in assay [12], 0.69 nM; in [13] it was 4.6 nM. For the same molecule, the “cAMP EC50” value in assay [14] is 16 nM.

B4: IP317 (Fc fusion)
chain: B2 chain with R16K
As for B4, the “cAMP EC50” value in [8] is 0.11 nM; in assay [9], 0.13 nM; in assay [10], 0.012 nM; in assay [11], more than 5550 nM; in assay [12], 0.33 nM; in [13], 5.3 nM. For the same molecule, in [14], the “cAMP EC50” value came out at 86 nM.

B5: IP403 (Fc fusion)
chain: YSEGTHTSDLRILLEEEAVRLFIEKLLAGGGSGGGGSGGGGSGGGGSGGGGSGGGGSGGGGSGGGGSACPPC
Regarding B5, the “cAMP EC50” value is 16 nM in assay [8]; 960 nM in assay [9]; 73 nM in assay [10]; 960 nM in assay [11]; more than 1740 nM in assay [12]; 0.02 nM in assay [13]. Also, the “cAMP EC50” value in assay [14] is 21 nM.

B6: IP390 (Fc fusion)
chain: YSEGTFTSDYSKLLEEEAVRLFIEWLVKGPGGGGGSGGGGSGGGGSGGGGSGGGGSACPPC
Turning to B6, the “cAMP EC50” value in assay [8] is 0.0088 nM; in assay [9] it was 0.13 nM; in assay [10], 0.024 nM; in assay [11], more than 218 nM; in assay [12] it was 2 nM; in [13], 0.23 nM. For the same molecule, in assay [14], the “cAMP EC50” value turned out to be 3.6 nM.

B7: IP382 (Fc fusion)
chain: YSEGTFTSLYSKLLEEEAVRLFIEYLLAGGGGGGSGGGGSGGGGSGGGGSATHTCPPC
Take B7: the “cAMP EC50” value amounted to 0.19 nM in assay [8]; 1.5 nM in assay [9]; 0.68 nM in [10]; 120 nM in [11]; 16 nM in [12]; 0.92 nM in assay [13]. Further, the “cAMP EC50” value in [14] turned out to be 6.5 nM.

B8: IP400 (Fc fusion)
chain: B7 chain with F6H, L9D, Y10L, Y25W
Take B8: the “cAMP EC50” value in assay [8] was found to be 0.002 nM; in assay [9], 0.29 nM; in assay [10] it was 0.19 nM; in [11] it was 1300 nM; in [12], 31 nM; in assay [13], 0.087 nM. Further, the “cAMP EC50” value in [14] amounted to 380 nM.

B9: IP384 (Fc fusion)
chain: B7 chain with L9D, Y25W, A28K
In the case of B9, the “cAMP EC50” value in assay [8] was determined as 0.0062 nM; in assay [9], 0.091 nM; in assay [10] it was 0.024 nM; in assay [11], 26 nM; in assay [12] it was 0.99 nM; in assay [13], 0.043 nM. In assay [14], the “cAMP EC50” value stood at 4.1 nM.

Source of the values: patent US20160185837A1 (AstraZeneca / MedImmune, published 2016).
